{"source": "paper PMC5338821", "about": "“Structure determination of a major facilitator peptide transporter: Inward facing PepTSt from Streptococcus thermophilus crystallized in space group P3_(1)21” (PLoS ONE, 2017)", "molecular_target": "the molecule itself", "test": "SEC; PepTSt solubilized and purified in LMNG (0.01%), final SEC step", "data": [{"protein": "peptide transporter PepTSt from Streptococcus thermophilus (wild-type) (natural protein, PepTSt, major facilitator superfamily peptide transporter of Streptococcus thermophilus; Dimer in LMNG and DDM, monomer in DM and NM; also called Ce27; source: Escherichia coli C41, membrane solubilization, purified (IMAC, SEC) in DDM, DM, NM or LMNG; not shown: hexahistidine, C-terminal, cleaved) MEDKGKTFFGQPLGLSTLFMTEMWERFSYYGMRAILLYYMWFLISTGDLHITRATAASIMAIYASMVYLSGTIGGFVADRIIGARPAVFWGGVLIMLGHIVLALPFGASALFGSIILIIIGTGFLKPNVSTLVGTLYDEHDRRRDAGFSIFVFGINLGAFIAPLIVGAAQEAAGYHVAFSLAAIGMFIGLLVYYFGGKKTLDPHYLRPTDPLAPEEVKPLLVKVSLAVAGFIAIIVVMNLVGWNSLPAYINLLTIVAIAIPVFYFAWMISSVKVTSTEHLRVVSYIPLFIAAVLFWAIEEQGSVVLATFAAERVDSSWFPVSWFQSLNPLFIMLYTPFFAWLWTAWKKNQPSSPTKFAVGLMFAGLSFLLMAIPGALYGTSGKVSPLWLVGSWALVILGEMLISPVGLSVTTKLAPKAFNSQMMSMWFLSSSVGSALNAQLVTLYNAKSEVAYFSYFGLGSVVLGIVLVFLSKRIQGLMQGVE", "values": [{"measurement": "stoichiometry N", "value": 2}]}]}
